Starred links: 1 amine or outer side, 2 acyl side, 3 side chain; linkers in the order of their positions; H or OH if unused. Non-standard residues stand in square brackets, D forms with d. Groups on a side chain read outwards from the residue. No end group written: not given here. *: point of attachment. C18 diacid = O=C(O)CCCCCCCCCCCCCCCCC(=O)*; γGlu = O=C(O)[C@H](CCC(=O)[*:2])N[*:1]; αMeF = C[C@](N)(Cc1ccccc1)C(=O)O; AEEA = NCCOCCOCC(=O)O; Aib = CC(C)(N)C(=O)O
Tests used:
[1] = target: human glucagon receptor (hGCGR) (human, UniProt P47871 26-477); assay: cell-based or functional assay
[2] = target: human GLP-1 receptor (hGLP-1R) (human, UniProt P43220 24-463); assay: cell-based or functional assay

human glucagon receptor (hGCGR), sequence (P47871 26-477): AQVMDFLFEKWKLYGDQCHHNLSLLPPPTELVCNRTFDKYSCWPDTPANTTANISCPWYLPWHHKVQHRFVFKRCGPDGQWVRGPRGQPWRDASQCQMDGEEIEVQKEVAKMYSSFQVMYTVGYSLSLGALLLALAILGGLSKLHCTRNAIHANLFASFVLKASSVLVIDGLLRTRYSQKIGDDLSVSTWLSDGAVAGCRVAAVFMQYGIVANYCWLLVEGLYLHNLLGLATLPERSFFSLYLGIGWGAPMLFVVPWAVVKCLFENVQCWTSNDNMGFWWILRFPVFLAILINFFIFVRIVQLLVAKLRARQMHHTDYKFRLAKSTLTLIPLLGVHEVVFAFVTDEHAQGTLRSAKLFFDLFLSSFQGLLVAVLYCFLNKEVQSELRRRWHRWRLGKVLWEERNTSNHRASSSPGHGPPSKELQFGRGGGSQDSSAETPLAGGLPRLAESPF

Binder	hGluc-R EC50 (pM) [1] [pM]	hGLP-1R EC50 (pM) [2] [pM]
H[Aib]QGTFTSDVSK[αMeF]LDSK([AEEA-AEEA-γGlu-C18 diacid])RAQDFVRWLEA[Aib]G-OH (N-terminus assumed; SMILES CC(C)C[C@H](NC(=O)[C@H](Cc1c[nH]c2ccccc12)NC(=O)[C@H](CCCNC(=N)N)NC(=O)[C@@H](NC(=O)[C@H](Cc1ccccc1)NC(=O)[C@H](CC(=O)O)NC(=O)[C@H](CCC(N)=O)NC(=O)[C@H](C)NC(=O)[C@H](CCCNC(=N)N)NC(=O)[C@H](CCCCNC(=O)COCCOCCNC(=O)COCCOCCNC(=O)CC[C@H](NC(=O)CCCCCCCCCCCCCCCCC(=O)O)C(=O)O)NC(=O)[C@H](CO)NC(=O)[C@H](CC(=O)O)NC(=O)[C@H](CC(C)C)NC(=O)[C@](C)(Cc1ccccc1)NC(=O)[C@H](CCCCN)NC(=O)[C@H](CO)NC(=O)[C@@H](NC(=O)[C@H](CC(=O)O)NC(=O)[C@H](CO)NC(=O)[C@@H](NC(=O)[C@H](Cc1ccccc1)NC(=O)[C@@H](NC(=O)CNC(=O)[C@H](CCC(N)=O)NC(=O)C(C)(C)NC(=O)[C@@H](N)Cc1c[nH]cn1)[C@@H](C)O)[C@@H](C)O)C(C)C)C(C)C)C(=O)N[C@@H](CCC(=O)O)C(=O)N[C@@H](C)C(=O)NC(C)(C)C(=O)NCC(=O)O) [Peptide 147]	43.5	15.3
H[Aib]QGTFTSDVSK[αMeF]LDSK([AEEA-AEEA-γGlu-C18 diacid])RAQDFVRWLASRGI-OH (N-terminus assumed; SMILES CC[C@H](C)[C@H](NC(=O)CNC(=O)[C@H](CCCNC(=N)N)NC(=O)[C@H](CO)NC(=O)[C@H](C)NC(=O)[C@H](CC(C)C)NC(=O)[C@H](Cc1c[nH]c2ccccc12)NC(=O)[C@H](CCCNC(=N)N)NC(=O)[C@@H](NC(=O)[C@H](Cc1ccccc1)NC(=O)[C@H](CC(=O)O)NC(=O)[C@H](CCC(N)=O)NC(=O)[C@H](C)NC(=O)[C@H](CCCNC(=N)N)NC(=O)[C@H](CCCCNC(=O)COCCOCCNC(=O)COCCOCCNC(=O)CC[C@H](NC(=O)CCCCCCCCCCCCCCCCC(=O)O)C(=O)O)NC(=O)[C@H](CO)NC(=O)[C@H](CC(=O)O)NC(=O)[C@H](CC(C)C)NC(=O)[C@](C)(Cc1ccccc1)NC(=O)[C@H](CCCCN)NC(=O)[C@H](CO)NC(=O)[C@@H](NC(=O)[C@H](CC(=O)O)NC(=O)[C@H](CO)NC(=O)[C@@H](NC(=O)[C@H](Cc1ccccc1)NC(=O)[C@@H](NC(=O)CNC(=O)[C@H](CCC(N)=O)NC(=O)C(C)(C)NC(=O)[C@@H](N)Cc1c[nH]cn1)[C@@H](C)O)[C@@H](C)O)C(C)C)C(C)C)C(=O)O) [Peptide 145]	4590	22.6
H[Aib]QGTFTSDVSK[αMeF]LDSK([γGlu-γGlu-AEEA-AEEA-γGlu-γGlu-C18 diacid])RARDFVRWLLE[Aib]G-OH (N-terminus assumed; SMILES CC(C)C[C@H](NC(=O)[C@H](Cc1c[nH]c2ccccc12)NC(=O)[C@H](CCCNC(=N)N)NC(=O)[C@@H](NC(=O)[C@H](Cc1ccccc1)NC(=O)[C@H](CC(=O)O)NC(=O)[C@H](CCCNC(=N)N)NC(=O)[C@H](C)NC(=O)[C@H](CCCNC(=N)N)NC(=O)[C@H](CCCCNC(=O)CC[C@H](NC(=O)CC[C@H](NC(=O)COCCOCCNC(=O)COCCOCCNC(=O)CC[C@H](NC(=O)CC[C@H](NC(=O)CCCCCCCCCCCCCCCCC(=O)O)C(=O)O)C(=O)O)C(=O)O)C(=O)O)NC(=O)[C@H](CO)NC(=O)[C@H](CC(=O)O)NC(=O)[C@H](CC(C)C)NC(=O)[C@](C)(Cc1ccccc1)NC(=O)[C@H](CCCCN)NC(=O)[C@H](CO)NC(=O)[C@@H](NC(=O)[C@H](CC(=O)O)NC(=O)[C@H](CO)NC(=O)[C@@H](NC(=O)[C@H](Cc1ccccc1)NC(=O)[C@@H](NC(=O)CNC(=O)[C@H](CCC(N)=O)NC(=O)C(C)(C)NC(=O)[C@@H](N)Cc1c[nH]cn1)[C@@H](C)O)[C@@H](C)O)C(C)C)C(C)C)C(=O)N[C@@H](CC(C)C)C(=O)N[C@@H](CCC(=O)O)C(=O)NC(C)(C)C(=O)NCC(=O)O) [Peptide 144]	702	45.2
H[Aib]QGTFTSDVSK[αMeF]LDSK([AEEA-AEEA-γGlu-C18 diacid])RARDFVQWLLE[Aib]G-OH (N-terminus assumed; SMILES CC(C)C[C@H](NC(=O)[C@H](Cc1c[nH]c2ccccc12)NC(=O)[C@H](CCC(N)=O)NC(=O)[C@@H](NC(=O)[C@H](Cc1ccccc1)NC(=O)[C@H](CC(=O)O)NC(=O)[C@H](CCCNC(=N)N)NC(=O)[C@H](C)NC(=O)[C@H](CCCNC(=N)N)NC(=O)[C@H](CCCCNC(=O)COCCOCCNC(=O)COCCOCCNC(=O)CC[C@H](NC(=O)CCCCCCCCCCCCCCCCC(=O)O)C(=O)O)NC(=O)[C@H](CO)NC(=O)[C@H](CC(=O)O)NC(=O)[C@H](CC(C)C)NC(=O)[C@](C)(Cc1ccccc1)NC(=O)[C@H](CCCCN)NC(=O)[C@H](CO)NC(=O)[C@@H](NC(=O)[C@H](CC(=O)O)NC(=O)[C@H](CO)NC(=O)[C@@H](NC(=O)[C@H](Cc1ccccc1)NC(=O)[C@@H](NC(=O)CNC(=O)[C@H](CCC(N)=O)NC(=O)C(C)(C)NC(=O)[C@@H](N)Cc1c[nH]cn1)[C@@H](C)O)[C@@H](C)O)C(C)C)C(C)C)C(=O)N[C@@H](CC(C)C)C(=O)N[C@@H](CCC(=O)O)C(=O)NC(C)(C)C(=O)NCC(=O)O) [Peptide 143]	32.6	19.1
H[Aib]QGTFTSDVSK[αMeF]LDSK([AEEA-AEEA-γGlu-C18 diacid])RAQDFVRWLASR-OH (N-terminus assumed; SMILES CC(C)C[C@H](NC(=O)[C@H](Cc1c[nH]c2ccccc12)NC(=O)[C@H](CCCNC(=N)N)NC(=O)[C@@H](NC(=O)[C@H](Cc1ccccc1)NC(=O)[C@H](CC(=O)O)NC(=O)[C@H](CCC(N)=O)NC(=O)[C@H](C)NC(=O)[C@H](CCCNC(=N)N)NC(=O)[C@H](CCCCNC(=O)COCCOCCNC(=O)COCCOCCNC(=O)CC[C@H](NC(=O)CCCCCCCCCCCCCCCCC(=O)O)C(=O)O)NC(=O)[C@H](CO)NC(=O)[C@H](CC(=O)O)NC(=O)[C@H](CC(C)C)NC(=O)[C@](C)(Cc1ccccc1)NC(=O)[C@H](CCCCN)NC(=O)[C@H](CO)NC(=O)[C@@H](NC(=O)[C@H](CC(=O)O)NC(=O)[C@H](CO)NC(=O)[C@@H](NC(=O)[C@H](Cc1ccccc1)NC(=O)[C@@H](NC(=O)CNC(=O)[C@H](CCC(N)=O)NC(=O)C(C)(C)NC(=O)[C@@H](N)Cc1c[nH]cn1)[C@@H](C)O)[C@@H](C)O)C(C)C)C(C)C)C(=O)N[C@@H](C)C(=O)N[C@@H](CO)C(=O)N[C@@H](CCCNC(=N)N)C(=O)O) [Peptide 146]	1630	24.6

— patent US20230357348A1 (AstraZeneca / MedImmune, published 2023)
